Legend:
Test in all cases: HPLC-UV of product, Michaelis-Menten
Assay type in all cases: biochemical, Cichorium intybus
[1] = substrate: O=C(O)[C@]1(O)C[C@@H](O)[C@@H](O)[C@H](O)C1; conditions: acyl acceptor varied, saturating caffeoyl-CoA (800 μM), 50 mM phosphate pH 7.1, room temperature
Source text: HPLC-UV of product, Michaelis-Menten on HQT3 (CiHQT3)

[2] = substrate: O=C(O)[C@]1(O)C[C@@H](O)[C@@H](O)[C@H](O)C1; conditions: acyl acceptor varied, saturating caffeoyl-CoA (800 μM), 50 mM phosphate pH 7.1, room temperature; remark: listed apart in the source
Source text: HPLC-UV of product, Michaelis-Menten on HQT1 (CiHQT1)

[3] = substrate: O=C(O)[C@]1(O)C[C@@H](O)[C@@H](O)[C@H](O)C1; conditions: acyl acceptor varied, saturating caffeoyl-CoA (800 μM), 50 mM phosphate pH 7.1, room temperature; remark: listed apart in the source
Source text: HPLC-UV of product, Michaelis-Menten on HQT2 (CiHQT2)

[4] = substrate: O=C(O)C1=C[C@@H](O)[C@@H](O)[C@H](O)C1; conditions: acyl acceptor varied, saturating p-coumaroyl-CoA (800 μM), 50 mM phosphate pH 7.1, room temperature
Source text: HPLC-UV of product, Michaelis-Menten on HCT1 (CiHCT1)

B1: HQT3 (CiHQT3) (Cichorium intybus) (protein)
chain: MGSDHKTMKINIKQSSLVQPSKPTIPSNKKLWTSNLDLVVGRIHILTVYFYRPNGCSNFFDPVVMKKALADVLVSFYPFAGRLSRDQNGRLEINCNGEGVLFVEAESDSTLDDFGEFTPSPELRRLTPTVDYSGDISSYPLFFAQVTHFKCGGVGLGCGVFHTLADGLSSIHFINTWSDMTRGLSIAVPPFTDRTLLRARETPTPTFDHVEYHLPPTMNTTSQNPKSSRKPSTNMLKLTIDQLNALKTAAKNDGGNTAYSTYEILAAHLWRCACKARGLPNDQQTKLYVATDGRSRLSPQLPPGYLGNVVFTATPMAKSGDLTTQPLSNSASLIRSTLSKMDNEYLRSAIDYLEVQPDLSALIRGPSYFASPNLNINTWTRLPVHDADFGWGRPVFMGPAVILYEGTIYVLPSPNNDRSMSLAVCLDADEQPLFEKFLYEF
Question: Which results are given for B1?
Answer: Km [1]: 318 ± 71 µM; Vmax [1]: 9.9 µmol/min/mg; Vmax/Km [1]: 31200 µL/min/mg

B2: HQT1 (CiHQT1) (Cichorium intybus) (protein)
chain: MTNGAGSEKMKVTVKESVIVKPSKTTPIQRLWNSNIDLLVGRIHLLTIYFYRPNGSSDFFDSGVLKKALSDVLVSFFPMAGRLGKDGDGRVEINCNAEGVWFVEAEADCRIDDFGEITPSPELRRLAPTVDYSGDISSYPLFITQVTRFKCGGVSLGCGVHHTLSDGFSSLHFINTWSDVARGLSVAIPPFNDRTLLRARDPPTPMYDHVEYHPPPSLITPPENHKPPASTTILRLTLDQINDLKSKGKGDGSVYHSTFVIIAAHLWRSACKARGLSDDQPTKLYVATDGRSRLIPPLPSGYLGNVLFTTTPMAKSGEFKSESLADTARRIHNELARMDDQYMRSAIDYLELQSDLSALVRGPTYFASPNLNVNSWTRLPLYESDFGWGRPIFMGPASILYEGTIYIIPSPTDDRSLKLAVCLDSDHMSLFQKYLYDF
Question: Which Km [2] does the source give for B2 here?
Answer: Its Km is 162 ± 34 µM.

Question: What about the Vmax [2] of the same protein?
Answer: Its Vmax is 6.78 µmol/min/mg.

Question: And the Vmax/Km [2]?
Answer: The Vmax/Km was 42000 µL/min/mg.

B3: HQT2 (CiHQT2) (Cichorium intybus) (protein)
chain: MGSDQKMMMNINIKKSSIIPPSETIPECPKQLWTSNLDLVVGRIHILTVYFYRPNGSANFFDPNVMKKALADVLVSFYPMAGRLDRDESGRIVINCNGEGVLFVEAESDSTLDDFGEFTPSPEFRRLTPTVDYSGDISSYPLFFAQVTHFKCGGVALGCGVFHTLSDGLSSLHFINTWSDMARGLSVAIPPFIERTLLRAREPPTPTHDHVEYHEPPSMSPTAQKPGSGSSTTMLKLTLDQLNTLKVKAKIESGQTHSTYEILAAHIWRCACKARGLPDDQLTKLYVATDGRSRLSPRLPPGYLGNVVFTATPVAKSGDLTSGSLSNTAKLIHTTLTKMDDDYLRSAIDYLESQKDLSALIRGPTYFASPNLNINAWTRLPVHDADFGYGRPIFMGPAQILYEGTVYVLPSPNNDRSVSLAVCLDANEQSLFEKFLYEL
Question: Which results are given for B3?
Answer: Km [3]: 613 ± 53 µM; Vmax [3]: 8.04 µmol/min/mg; Vmax/Km [3]: 13200 µL/min/mg

B4: HCT1 (CiHCT1) (Cichorium intybus) (protein)
chain: MKIEVRESTMVRPAEETPKINLWNSNVDLVVPNFHTPSVYFYRPNGATNFFDPKVMKDALSKALVPFYPMGGRLKRDEDGRIEIDCQGQGVLFVEAESDGMVDDFGDFAPTLELRKLIPAVDYSQGIESYPLLVLQVTYFKCGGVSLGVGMQHHAADGASGLHFINTWSDMARGLDLTIPPFIDRTLLRARDPPQPAFEHVEYQPAPQMKTTSKSTDEQPVPETAVAIFKLTRDQLNALKAKSKENGNTINYSSYEMLSGHVWRCVCKARNLPADQDTKLYIATDGRARLRPSLPPGYFGNVIFTTTPIAVAGELMSNPTWYAAGKIHDGLAKMDNDYLKSALDYLELQPDLKALVRGAHSFRCPNLGITSWARLPIHDADFGWGRPIFMGPGGIAYEGLSFVLPSPINDGSLSIAISLQAEHMKVFSKFLYDI
Question: What does the source list for B4?
Answer: Km [4]: 320 ± 40 µM; Vmax [4]: 14.2 µmol/min/mg; Vmax/Km [4]: 44400 µL/min/mg

From PMC4893494, “Identification and Characterization of Five BAHD Acyltransferases Involved in Hydroxycinnamoyl Ester Metabolism in Chicory” (Frontiers in Plant Science, 2016)
